Assay results taken from the MegaScale stability set (Tsuboyama et al. 2023).

B1: HHH_rd1_0493 (parent)
chain: RDEDEKEKIKEALKRGNEDKAKEIAKRANVSPEEYERLRKEAE

Variants of: B1
Test: folding stability dG (cDNA display proteolysis); higher = more stable
Conditions: PBS, room temperature

Row | Variant | folding stability dG
1 | RDEDEKEKIKEALKRGNEDKAKEIHKRANVSPEEYERLRKEAE | 0.547 kcal/mol
2 | RDEDEKEKIKEALKRGNEDKAKEINKRANVSPEEYERLRKEAE | 0.52 kcal/mol
3 | RDEDEKEKIKEALKRGNEDKAKEIGKRANVSPEEYERLRKEAE | 1.3 kcal/mol
4 | RDEDEKEKIKEALKRGNEDKAKEIFKRANVSPEEYERLRKEAE | 0.695 kcal/mol
5 | RDEDEKEKIKEALKRGNEDKAKEICKRANVSPEEYERLRKEAE | 1.54 kcal/mol
6 | RDEDEKEKIKEALKRGNEDKAKEIRKRANVSPEEYERLRKEAE | 1.16 kcal/mol
7 | RDEDEKEKIKEALKRGNEDKAKEIQKRANVSPEEYERLRKEAE | 2.15 kcal/mol
8 | RDEDEKEKIKEALKRGNEDKAKEISKRANVSPEEYERLRKEAE | 1.74 kcal/mol
9 | RDEDEKEKIKEALKRGNEDKAKEIMKRANVSPEEYERLRKEAE | 1.88 kcal/mol
10 | RDEDEKEKIKEALKRGNEDKAKEIKKRANVSPEEYERLRKEAE | 0.845 kcal/mol
11 | RDEDEKEKIKEALKRGNEDKAKEIPKRANVSPEEYERLRKEAE | 0.533 kcal/mol
12 | RDEDEKEKIKEALKRGNEDKAKEIEKRANVSPEEYERLRKEAE | 0.618 kcal/mol
13 | RDEDEKEKIKEALKRGNEDKAKEILKRANVSPEEYERLRKEAE | 0.818 kcal/mol
14 | RDEDEKEKIKEALKRGNEDKAKEIIKRANVSPEEYERLRKEAE | 0.742 kcal/mol
15 | RDEDEKEKIKEALKRGNEDKAKEIDKRANVSPEEYERLRKEAE | 0.442 kcal/mol
16 | RDEDEKEKIKEALKRGNEDKAKMIAKRANVSPEEYERLRKEAE | 2.33 kcal/mol
17 | RDEDEKEKIKEALKRGNEDKAKGIAKRANVSPEEYERLRKEAE | 1.92 kcal/mol
18 | RDEDEKEKIKEALKRGNEDKAKFIAKRANVSPEEYERLRKEAE | 1.7 kcal/mol
19 | RDEDEKEKIKEALKRGNEDKAKVIAKRANVSPEEYERLRKEAE | 2.17 kcal/mol
20 | RDEDEKEKIKEALKRGNEDKAKYIAKRANVSPEEYERLRKEAE | 1.79 kcal/mol

Row | Variant | folding stability dG
21 | RDEDEKEKIKEALKRGNEDKAKTIAKRANVSPEEYERLRKEAE | 2.22 kcal/mol
22 | RDEDEKEKIKEALKRGNEDKAKKIAKRANVSPEEYERLRKEAE | 2.26 kcal/mol
23 | RDEDEKEKIKEALKRGNEDKAKDIAKRANVSPEEYERLRKEAE | 2.56 kcal/mol
24 | RDEDEKEKIKEALKRGNEDKAKRIAKRANVSPEEYERLRKEAE | 2.39 kcal/mol
25 | RDEDEKEKIKEALKRGNEDKAKHIAKRANVSPEEYERLRKEAE | 1.96 kcal/mol
26 | RDEDEKEKIKEALKRGNEDKAKCIAKRANVSPEEYERLRKEAE | 2.49 kcal/mol
27 | RDEDEKEKIKEALKRGNEDKAKPIAKRANVSPEEYERLRKEAE | 0.537 kcal/mol
28 | RDEDEKEKIKEALKRGNEDKAKLIAKRANVSPEEYERLRKEAE | 2.16 kcal/mol
29 | RDEDEKEKIKEALKRGNEDKAKIIAKRANVSPEEYERLRKEAE | 2.35 kcal/mol
30 | RDEDEKEKIKEALKRGNEDKAKSIAKRANVSPEEYERLRKEAE | 2.42 kcal/mol
31 | RDEDEKEKIKEALKRGNEDKAKWIAKRANVSPEEYERLRKEAE | 1.79 kcal/mol
32 | RDEDEKEKIKEALKRGNEDKAKNIAKRANVSPEEYERLRKEAE | 2.02 kcal/mol
33 | RDEDEKEKIKEALKRGNEDKAKQIAKRANVSPEEYERLRKEAE | 2.73 kcal/mol
34 | RDEDEKEKIKEALKRGNEDKAKAIAKRANVSPEEYERLRKEAE | 2.87 kcal/mol
35 | RDEDEKEKIKEALKRGNEDKAYEIAKRANVSPEEYERLRKEAE | 2.11 kcal/mol
36 | RDEDEKEKIKEALKRGNEDKASEIAKRANVSPEEYERLRKEAE | 2.2 kcal/mol
37 | RDEDEKEKIKEALKRGNEDKAVEIAKRANVSPEEYERLRKEAE | 2.44 kcal/mol
38 | RDEDEKEKIKEALKRGNEDKAREIAKRANVSPEEYERLRKEAE | 3.21 kcal/mol
39 | RDEDEKEKIKEALKRGNEDKATEIAKRANVSPEEYERLRKEAE | 2.24 kcal/mol
40 | RDEDEKEKIKEALKRGNEDKAWEIAKRANVSPEEYERLRKEAE | 2.75 kcal/mol

Row | Variant | folding stability dG
41 | RDEDEKEKIKEALKRGNEDKAKENAKRANVSPEEYERLRKEAE | 0.704 kcal/mol
42 | RDEDEKEKIKEALKRGNEDKAKERAKRANVSPEEYERLRKEAE | 1.04 kcal/mol
43 | RDEDEKEKIKEALKRGNEDKAKEPAKRANVSPEEYERLRKEAE | 0.59 kcal/mol
44 | RDEDEKEKIKEALKRGNEDKAKEMAKRANVSPEEYERLRKEAE | 2.13 kcal/mol
45 | RDEDEKEKIKEALKRGNEDKAKECAKRANVSPEEYERLRKEAE | 1.77 kcal/mol
46 | RDEDEKEKIKEALKRGNEDKAKEVAKRANVSPEEYERLRKEAE | 1.87 kcal/mol
47 | RDEDEKEKIKEALKRGNEDKAKEQAKRANVSPEEYERLRKEAE | 1.13 kcal/mol
48 | RDEDEKEKIKEALKRGNEDKAKEHAKRANVSPEEYERLRKEAE | 1.67 kcal/mol
49 | RDEDEKEKIKEALKRGNEDKAKELAKRANVSPEEYERLRKEAE | 2.8 kcal/mol
50 | RDEDEKEKIKEALKRGNEDKAKEEAKRANVSPEEYERLRKEAE | 1.16 kcal/mol
51 | RDEDEKEKIKEALKRGNEDKAKEDAKRANVSPEEYERLRKEAE | 0.95 kcal/mol
52 | RDEDEKEKIKEALKRGNEDKAKESAKRANVSPEEYERLRKEAE | 0.921 kcal/mol
53 | RDEDEKEKIKEALKRGNEDKAKEKAKRANVSPEEYERLRKEAE | 0.623 kcal/mol
54 | RDEDEKEKIKEALKRGNEDKAKEWAKRANVSPEEYERLRKEAE | 1.34 kcal/mol
55 | RDEDEKEKIKEALKRGNEDKAKEAAKRANVSPEEYERLRKEAE | 1.47 kcal/mol
56 | RDEDEKEKIKEALKRGNEDKAKEFAKRANVSPEEYERLRKEAE | 1.48 kcal/mol
57 | RDEDEKEKIKEALKRGNEDKAKEYAKRANVSPEEYERLRKEAE | 1.73 kcal/mol
58 | RDEDEKEKIKEALKRGNEDKAKEGAKRANVSPEEYERLRKEAE | 0.729 kcal/mol
59 | RDEDEKEKIKEALKRGNEDKAKETAKRANVSPEEYERLRKEAE | 1.32 kcal/mol
